Test results published in US20240068004A1 (MBRACE THERAPEUTICS, published 2024).
Values belong to the binder of their own block, whether it stands above or below them.

Tests used:
Test in all cases: alanine scan, high-throughput flow cytometry
[1] = molecular target: T1, GRP78 alanine scanning variant R261A (human, UniProt P11021 19-654)
T1 construct: Member of the alanine scanning library of GRP78
Procedure: (§1) To characterize the binding properties of the antibodies described in Example 1 for GRP78, epitope mapping analysis was carried out by alanine scanning mutagenesis. An alanine scanning library of GRP78 was constructed. Each anti-GRP78 antibody was then screened for binding to each individual GRP78 variant, allowing identification of the target protein residues involved in antibody binding.
(§2) Binding of each test antibody to each GRP78 variant in the alanine scanning library was determined by high-throughput flow cytometry under high stringency conditions (e.g., increased pH, increased salinity, increased temperature and/or increased wash time). Also included in the experiment was a commercially-available monoclonal antibody, 1H11-1H7, which was verified to bind to the wildtype (WT) GRP78 on cells and thus determined to be a suitable positive control under these conditions (Thermo Fisher Scientific, Waltham, MA). Antibody binding to each of the GRP78 variants as measured by the fluorescence signal (raw fluorescence data minus the background), was normalized to its binding to the WT GRP78. For each GRP78 variant, such normalized binding to the test antibodies was plotted relative to that to the control antibody.

[2] = molecular target: T2, GRP78 alanine scanning variant R279A (human, UniProt P11021 19-654)
T2 construct: Member of the alanine scanning library of GRP78
Procedure: as §1, §2

[3] = molecular target: T3, GRP78 alanine scanning variant E329A (human, UniProt P11021 19-654)
T3 construct: Member of the alanine scanning library of GRP78
Procedure: as §1, §2

[4] = molecular target: T4, GRP78 alanine scanning variant H265A (human, UniProt P11021 19-654)
T4 construct: Member of the alanine scanning library of GRP78
Procedure: as §1, §2

T1 sequence (P11021 19-654 R261A limits assumed): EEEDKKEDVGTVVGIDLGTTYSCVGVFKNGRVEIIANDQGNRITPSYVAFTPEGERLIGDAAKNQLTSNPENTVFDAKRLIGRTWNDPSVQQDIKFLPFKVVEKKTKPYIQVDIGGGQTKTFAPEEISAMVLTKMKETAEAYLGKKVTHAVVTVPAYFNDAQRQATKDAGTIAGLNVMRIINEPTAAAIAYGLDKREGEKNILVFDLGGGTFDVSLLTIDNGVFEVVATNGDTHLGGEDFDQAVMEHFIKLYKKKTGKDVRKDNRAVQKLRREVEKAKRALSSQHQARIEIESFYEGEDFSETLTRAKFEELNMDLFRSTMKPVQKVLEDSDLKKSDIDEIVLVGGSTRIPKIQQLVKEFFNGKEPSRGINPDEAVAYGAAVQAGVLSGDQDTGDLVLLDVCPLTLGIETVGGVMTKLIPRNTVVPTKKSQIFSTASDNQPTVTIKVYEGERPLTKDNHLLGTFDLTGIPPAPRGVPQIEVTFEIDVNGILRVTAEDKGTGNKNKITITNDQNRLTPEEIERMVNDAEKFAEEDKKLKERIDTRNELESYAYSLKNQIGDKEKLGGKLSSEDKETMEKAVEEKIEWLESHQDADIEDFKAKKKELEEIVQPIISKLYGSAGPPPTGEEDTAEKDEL
T3 sequence (P11021 19-654 E329A limits assumed): as the sequence (P11021 19-654 R261A limits assumed) above, with A243R, E311A counted along it
T4 sequence (P11021 19-654 H265A limits assumed): as the sequence (P11021 19-654 R261A limits assumed) above, with A243R, H247A counted along it
T2 sequence (P11021 19-654 R279A limits assumed): as the sequence (P11021 19-654 R261A limits assumed) above, with A243R, R261A counted along it

% binding normalized to WT GRP78 [1]: < 20%
% binding normalized to WT GRP78 [2]: < 20%
B1: anti-GRP78 antibody clone F6 (antibody, IgG1, V domains shown)
VH: QVQLQQSGPGLVKPPQTLSLTCAISGDSVSSNSAAWNWIRQSPSRGLEWLGRTYYRSKWYNDYAVSVKSRITINPDTSKNQFSLQLNSVTPEDTAVYYCARDPYYYDSSGYYYFDAFDIWGQGTMVTVSS
VL: SYELTQPHSVSVAPGQTARITCGGDNIGSKSVHWYQQRPGQAPVLVVYDDSDRPSGIPERFSGSNSENTATLTISGVEAGDEADYYCQVWDSTSHHVVFGGGTKLTVL
notes: Fully human mAb formatted as full-length IgG1; also called F6 mAb

% binding normalized to WT GRP78 [3]: < 20%
% binding normalized to WT GRP78 [4]: < 20%
% binding normalized to WT GRP78 [1]: < 20%
B2: anti-GRP78 antibody clone B4 (antibody, IgG1, V domains shown)
VH: QVRLQESGPGLVKPSQTLSLTCTVSGGSISSGGYYWSWIRQHPGKGLEWIGYIYYSGSTYYNPSLESRVTISVDTSKNQFSLKLSSVTAADTAVYYCARYSSIDAFEIWGQGTMVTVSS
VL: SYVLTQPPSVSVAPGKTATITCGGDDIGSKSVHWYQQKPGQAPVLVVYDDGDRPSGIPERFSGSNSGNTATLAISRVEAGDEADYYCQVWDSSSDQYVFGSGTKLTVL
notes: Fully human mAb formatted as full-length IgG1; also called B4 mAb
